Measurements: patent US7119174B2, “Diagnosis and treatment of AUR1 and/or AUR2 related disorders” (Sugen, Inc., priority 1995, dated 2006)
Substitutions are numbered along the chain they refer to. In names and notes the source's numbering stands.

B1: human AUR2 (AURORA TWO), endogenous protein in lysates of human tumors and tumor cell lines (protein)
chain: MDRSKENCISGPVKATAPVGGPKRVLVTQQFPCQNPLPVNSGQAQRVLCPSNSSQRVPLQAQKLVSSHKPVQNQKQKQLQATSVPHPVSRPLNNTQKSKQPLPSAPENNPEEELASKQKNEESKKRQWALEDFEIGRPLGKGKFGNVYLAREKQSKFILALKVLFKAQLEKAGVEHQLRREVEIQSHLRHPNILRLYGYFHDATRVYLILEYAPLGTVYRELQKLSKFDEQRTATYITELANALSYCHSKRVIHRDIKPENLLLGSAGELKIADFGWSVHAPSSRRTTLCGTLDYLPPEMIEGRMHDEKVDLWSLGVLCYEFLVGKPPFEANTYQETYKRISRVEFTFPDFVTEGARDLISRLLKHNPSQRPMLREVLEHPWITANSSKPSNCQNKESASKQS
B2: human AUR1 (AURORA ONE), endogenous protein in SW480 cell lysate (protein)
chain: MAQKENSYPWPYGRQTAPSGLSTLPQRVLRKEPVTPSALVLMSRSNVQPTAAPGQKVMENSSGTPDILTRHFTIDDFEIGRPLGKGKFGNVYLAREKKSHFIVALKVLFKSQIEKEGVEHQLRREIEIQAHLHHPNILRLYNYFYDRRRIYLILEYAPRGELYKELQKSCTFDEQRTATIMEELADALMYCHGKKVIHRDIKPENLLLGLKGELKIADFGWSVHAPSLRRKTMCGTLDYLPPEMIEGRMHNEKVDLWCIGVLCYELLVGNPPFESASHNETYRRIVKVDLKFPASVPTGAQDLISKLLRHNPSERLPLAQVSAHPWVRANSRRVLPPSALQSVA
B3: HA-tagged activated human AUR2 mutant T288D (protein)
chain: MDRSKENCISGPVKATAPVGGPKRVLVTQQFPCQNPLPVNSGQAQRVLCPSNSSQRVPLQAQKLVSSHKPVQNQKQKQLQATSVPHPVSRPLNNTQKSKQPLPSAPENNPEEELASKQKNEESKKRQWALEDFEIGRPLGKGKFGNVYLAREKQSKFILALKVLFKAQLEKAGVEHQLRREVEIQSHLRHPNILRLYGYFHDATRVYLILEYAPLGTVYRELQKLSKFDEQRTATYITELANALSYCHSKRVIHRDIKPENLLLGSAGELKIADFGWSVHAPSSRRTDLCGTLDYLPPEMIEGRMHDEKVDLWSLGVLCYEFLVGKPPFEANTYQETYKRISRVEFTFPDFVTEGARDLISRLLKHNPSQRPMLREVLEHPWITANSSKPSNCQNKESASKQSYPYDVPDYAS
B4: HA-tagged kinase inactive human AUR2 mutant K162M (protein)
chain: B3 chain with K162M, D288T
B5: HA-tagged wild-type human AUR2 (entire coding domain with C-terminal HA epitope) (protein)
chain: B3 chain with D288T

Tests used:
[1] = test system: AUR2; assay: AUR2 protein expression by immunoblot after antisense oligo treatment of H1299 cells; assay type: cell-based; conditions: human tumor cell line H1299, lipofectin, each oligo 1 μM then 200 nM, harvested ~40 hours after initial treatment
Method: Human H1299 cells were seeded at ˜40–50% confluency in a 6 well plate (Falcon). The following day lipofectin (Gibco) and oligo(s) were mixed with OptiMEM (Gibco) such that the final concentration of lipofectin is 100 μg/mL and the final concentration of each oligo is 1 μM in a volume of 200 μL. The lipofectin/oligo/OptiMEM mixture was incubated at room temperature (20–25° C.) for 15 minutes, 800 μL of OptiMEM was added to the lipofectin/oligo/OptiMEM mixture, and mixed gently. The growth medium was removed from the H1299 cells, which were at ˜80% confluency. Cells were washed once with OptiMEM. The OptiMEM was aspirated, the lipofectin/oligo/OptiMEM mixture was added, cultures incubated at 37° C. for 4 hours. The lipofectin/oligo/OptiMEM mixture was removed and replaced with normal growth medium containing the antisense oligo(s) at a concentration of 200 nM. The plates were returned to the 37° C. incubator for 16–20 hours after which the growth medium was removed from the cells and they were washed once with OptiMEM. The OptiMEM was again aspirated and the lipofectin/oligo/OptiMEM mixture was added (prepared as described above) and the plates again were incubated at 37° C. for 4 hours. The lipofectin/oligo/OptiMEM mixture was removed again and replaced with normal growth medium containing the antisense oligo(s) at a concentration of 200 nM. The platea were returned to the 37° C. incubator for 16–20 hours. The cells were harvested (˜40 hours after initial treatment) and analyzed for aur2 mRNA by northern blot or AUR2 protein expression by immunoblot.

[2] = molecular target: myelin basic protein (Sigma)
[3] = molecular target: alpha-casein

| Molecule | AUR2 protein expression [1] | in vitro kinase assay on protein from stable Rat1 lines [3] | in vitro kinase assay on protein from stable NIH3T3 lines [2] | other results |
| --- | --- | --- | --- | --- |
| CAGGGCAGAGTGGTCACTTTC (listed as DNA, chemistry not given here) [SEQ ID NO:30, antisense oligonucleotide to nucleotides 1743–1763 of aur2] | significantly down regulated |  |  |  |
| TGCAGTCGAACCTTGCCTCCA (listed as DNA, chemistry not given here) [SEQ ID NO:32, antisense oligonucleotide to nucleotides 1654–1674 of aur2] | significantly down regulated |  |  |  |
| CGTCCGCCACTCCGACCAGCC (listed as DNA, chemistry not given here) [SEQ ID NO:31, antisense oligonucleotide to nucleotides 42–62 of aur2] | significantly down regulated |  |  |  |
| SEQ ID NO:16: printed in b341 as antisense oligonucleotide targeting human aur2 mRNA; probably misprint for one of SEQ ID NO:30-32 (antisense GARTTYGGNGARGTNTTYYTNGC; listed as DNA, chemistry not fully specified) | significantly down regulate |  |  |  |
| SEQ ID NO:17: printed in b341 as antisense oligonucleotide targeting human aur2 mRNA; probably misprint for one of SEQ ID NO:30-32 (antisense AGNACNCCRAANGCCCACACRTC; listed as DNA, chemistry not fully specified) | significantly down regulate |  |  |  |
| B1 |  |  |  | in vitro kinase assay, phosphorylation of myelin basic protein [2]: AUR1 and AUR2 immunocomplexes were able to phosphorylate myelin basic protein |
| B2 |  |  |  | in vitro kinase assay, phosphorylation of myelin basic protein [2]: AUR1 and AUR2 immunocomplexes were able to phosphorylate myelin basic protein |
| B3 |  | the wild-type and activated AUR2 (T288D) proteins had increased activity on this artificial substrate | the activated AUR2 mutant (T288D) had marked activity on this artificial substrate |  |
| B4 |  | The kinase inactive AUR2 mutant (K162M) was unable to phosphorylate-casein over the levels observed in the vector control cell line in vitro | The wild-type and kinase inactive AUR2 mutant (K162M) were unable to phosphorylate myelin basic protein in vitro |  |
| B5 |  | the wild-type and activated AUR2 (T288D) proteins had increased activity on this artificial substrate | The wild-type and kinase inactive AUR2 mutant (K162M) were unable to phosphorylate myelin basic protein in vitro |  |
